These results are taken from patent US20210395374A1.

In assay [1] the target is Cynomolgus CD3ε/δ (cynomolgus monkey) (UniProt Q95LI5). Nature of the assay: kinetic binding analysis (ka/kd); method not stated.
The target of another assay is Human CD3ε/δ (human) (UniProt P07766). The assay is described as above.
Chain of UniProt P07766 (P07766 23-126, stated change not applied, chain 1 of 2): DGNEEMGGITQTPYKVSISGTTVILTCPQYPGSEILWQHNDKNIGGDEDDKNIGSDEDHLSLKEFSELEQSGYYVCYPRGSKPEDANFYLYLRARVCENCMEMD
Chain of UniProt P07766 (P04234 22-105, stated change not applied, chain 2 of 2, further chain): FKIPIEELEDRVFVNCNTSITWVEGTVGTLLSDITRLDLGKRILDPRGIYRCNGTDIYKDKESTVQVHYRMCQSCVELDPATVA

Chain of UniProt Q95LI5 (Q95LI5 22-117, stated change not applied, chain 1 of 2): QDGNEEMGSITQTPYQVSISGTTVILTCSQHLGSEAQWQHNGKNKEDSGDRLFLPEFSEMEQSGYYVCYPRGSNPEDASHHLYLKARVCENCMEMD
Chain of UniProt Q95LI5 (Q95LI8 22-105, stated change not applied, chain 2 of 2, further chain): as the sequence (P04234 22-105, stated change not applied, chain 2 of 2, further chain) above, with I5V, N15K, I20V, S32T, D33N, I34N, T64A, S74N, V83L counted along it

B1: DART-A (sequence-optimized CD123×CD3 bispecific diabody) (bispecific antibody)
chain 1: QAVVTQEPSLTVSPGGTVTLTCRSSTGAVTTSNYANWVQQKPGQAPRGLIGGTNKRAPWTPARFSGSLLGGKAALTITGAQAEDEADYYCALWYSNLWVFGGGTKLTVLGGGGSGGGGEVQLVQSGAELKKPGASVKVSCKASGYTFTDYYMKWVRQAPGQGLEWIGDIIPSNGATFYNQKFKGRVTITVDKSTSTAYMELSSLRSEDTAVYYCARSHLLRASWFAYWGQGTLVTVSSGGCGGGEVAALEKEVAALEKEVAALEKEVAALEK
chain 2: DFVMTQSPDSLAVSLGERVTMSCKSSQSLLNSGNQKNYLTWYQQKPGQPPKLLIYWASTRESGVPDRFSGSGSGTDFTLTISSLQAEDVAVYYCQNDYSYPYTFGQGTKLEIKGGGSGGGGEVQLVESGGGLVQPGGSLRLSCAASGFTFSTYAMNWVRQAPGKGLEWVGRIRSKYNNYATYYADSVKDRFTISRDDSKNSLYLQMNSLKTEDTAVYYCVRHGNFGNSYVSWFAYWGQGTLVTVSSGGCGGGKVAALKEKVAALKEKVAALKEKVAALKE
In assay [1], B1 gave a Kd of 9.2 nM, a koff of 0.005 s⁻¹ and a kon of 550000 M⁻¹ s⁻¹. In the assay with Human CD3ε/δ (human), this molecule came in with a Kd of 9 nM, a koff of 0.005 s⁻¹ and a kon of 570000 M⁻¹ s⁻¹.

One may read the Kd as the concentration at which binding is half-saturated. The koff is the first-order rate constant of dissociation. As a reminder, the kon is the second-order rate constant of association.
